First the molecules themselves.
B1: RSPH3 (parent)
chain: VDVQTELYLEEIADRIIEVDMECQ
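Also: lentivirally expressed fusions sorted by FACS into six bins by GFP to DsRed ratio, PSI derived from sequencing read proportions per bin multiplied by bin number.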

The series covers variants of B1. Description: protein stability index of a GFP-peptide fusion (GPS, HEK-293T) (PSI 1-6); higher = more stable. The following applies: c terminus: a fixed tail appended.
For VDVQTELYLEEIADRIIMVDMECQ [E18M], the protein stability index came to 1.94.

In the case of VDVQTELYLEEIADRIIQVDMECQ [E18Q], the protein stability index was 1.57. On to VDVQTELYLEEIADRIIGVDMECQ [E18G], for which the protein stability index was 2.86. For VDVQTELYLEEIADRIITVDMECQ [E18T] the value was 2.23.

For the variant VDVQTELYLEEIADRIIHVDMECQ [E18H], the protein stability index was determined as 2.31.

As for VDVQTELYLEEIADRIISVDMECQ [E18S], the protein stability index was found to be 2.44. For VDVQTELYLEEIADRIINVDMECQ [E18N] the value was 2.7; for VDVQTELYLEEIADRIIYVDMECQ [E18Y], 2.03; for VDVQTELYLEEIADRIIFVDMECQ [E18F], 2.26. For VDVQTELYLEEIADRIIVVDMECQ [E18V] the value was 2.85.

With VDVQTELYLEEIADRIIIVDMECQ [E18I], the protein stability index turned out to be 2.01.

On to VDVQTELYLEEIADRIIPVDMECQ [E18P], for which the protein stability index is 2.79. The figure for VDVQTELYLEEIADRIIAVDMECQ [E18A] is 2.22; for VDVQTELYLEEIADRIIDVDMECQ [E18D] it is 3.12; for VDVQTELYLEEIADRIIWVDMECQ [E18W] it is 2.23. The figure for VDVQTELYLEEIADRIIKVDMECQ [E18K] is 2.59; for VDVQTELYLEEIADRIIRVDMECQ [E18R] it is 2.51. The figure for VDVQTELYLEEIADRIICVDMECQ [E18C] is 2.48; for VDVQTELYLEEIADRIIEVLMECQ [D20L] it is 4.62.

Turning to VDVQTELYLEEIADRIIEVIMECQ [D20I], the protein stability index turned out to be 3.01. For VDVQTELYLEEIADRIIEVHMECQ [D20H] the value was 2.46. For VDVQTELYLEEIADRIIEVKMECQ [D20K] the value was 2.24; for VDVQTELYLEEIADRIIEVGMECQ [D20G], 1.85.

Consider VDVQTELYLEEIADRIIEVEMECQ [D20E], for which the protein stability index came out at 1.71. The figure for VDVQTELYLEEIADRIIEVFMECQ [D20F] is 3.1; for VDVQTELYLEEIADRIIEVAMECQ [D20A] it is 2.54. Regarding VDVQTELYLEEIADRMIEVDMECQ [I16M], the protein stability index worked out at 2.36. For VDVQTELYLEEIADRCIEVDMECQ [I16C] the value was 2.85; for VDVQTELYLEEIADRYIEVDMECQ [I16Y], 2.57; for VDVQTELYLEEIADRKIEVDMECQ [I16K], 4.49. For VDVQTELYLEEIADRQIEVDMECQ [I16Q] the value was 4.18; for VDVQTELYLEEIADRDIEVDMECQ [I16D], 4.54.

For the variant VDVQTELYLEEIADRRIEVDMECQ [I16R], the protein stability index turned out to be 3.23.

As to VDVQTELYLEEIADRVIEVDMECQ [I16V], the protein stability index worked out at 3.37. For VDVQTELYLEEIADRAIEVDMECQ [I16A] the value was 3.63. With VDVQTELYLEEIADRPIEVDMECQ [I16P], the protein stability index is 4.93. In the case of VDVQTELYLEEIADRWIEVDMECQ [I16W], the protein stability index amounted to 2.97. Regarding VDVQTELYLEEIADRTIEVDMECQ [I16T], the protein stability index worked out at 4.19. The figure for VDVQTELYLEEIADRHIEVDMECQ [I16H] is 4.19; for VDVQTELYLEEIADRGIEVDMECQ [I16G] it is 4.3; for VDVQTELYLEEIADREIEVDMECQ [I16E] it is 4.48. For VDVQTELYLEEIADRFIEVDMECQ [I16F] the value was 1.87; for VDVQTELYLEEIADQIIEVDMECQ [R15Q], 3.58. The figure for VDVQTELYLEEIADNIIEVDMECQ [R15N] is 3.66; for VDVQTELYLEEIADFIIEVDMECQ [R15F] it is 2.31; for VDVQTELYLEEIADPIIEVDMECQ [R15P] it is 3.73. Take VDVQTELYLEEIADVIIEVDMECQ [R15V]: the protein stability index was found to be 2.65. The figure for VDVQTELYLEEIADDIIEVDMECQ [R15D] is 3.17; for VDVQTELYLEEIADGIIEVDMECQ [R15G] it is 3.14. For VDVQTELYLEEIADEIIEVDMECQ [R15E] the value was 3.55; for VDVQTELYLEEIADMIIEVDMECQ [R15M], 2.24. For VDVQTELYLEEIADYIIEVDMECQ [R15Y] the value was 2.79. In the case of VDVQTELYLEEIADTIIEVDMECQ [R15T], the protein stability index amounted to 2.56.

Consider VDVQTELYLEEIADKIIEVDMECQ [R15K], for which the protein stability index was found to be 3.1. The figure for VDVQTELYLEEIADWIIEVDMECQ [R15W] is 3.01; for VDVQTELYLEEIADHIIEVDMECQ [R15H] it is 2.77.

For the variant VDVQTELYLEEIADSIIEVDMECQ [R15S], the protein stability index was 3.16. The figure for VDVQTELYLEEIADRIREVDMECQ [I17R] is 3.33. The figure for VDVQTELYLEEIADRILEVDMECQ [I17L] is 2.17; for VDVQTELYLEEIADRIEEVDMECQ [I17E] it is 3.87; for VDVQTELYLEEIADRIFEVDMECQ [I17F] it is 1.96.

For the variant VDVQTELYLEEIADRIVEVDMECQ [I17V], the protein stability index was found to be 2.39.

As for VDVQTELYLEEIADRIMEVDMECQ [I17M], the protein stability index turned out to be 1.87. For VDVQTELYLEEIADRITEVDMECQ [I17T] the value was 3.6. For VDVQTELYLEEIADRISEVDMECQ [I17S] the value was 3.74. The figure for VDVQTELYLEEIADRIDEVDMECQ [I17D] is 3.99; for VDVQTELYLEEIADRICEVDMECQ [I17C] it is 2.58; for VDVQTELYLEEIADRIHEVDMECQ [I17H] it is 2.94. As for VDVQTELYLEEIADRIKEVDMECQ [I17K], the protein stability index is 3.65. The figure for VDVQTELYLEEIADRIYEVDMECQ [I17Y] is 2.09.

Regarding VDVQTELYLEEIADRIAEVDMECQ [I17A], the protein stability index was determined as 2.41.

VDVQTELYLEEIADRIGEVDMECQ [I17G]: the protein stability index is 4.14. As for VDVQTELYLEEIADRIQEVDMECQ [I17Q], the protein stability index was determined as 3.47. The figure for VDVQTELYLEEIADRINEVDMECQ [I17N] is 2.81; for VDVQTELYLEEIADRIPEVDMECQ [I17P] it is 4.26; for VDVQTELYLEEIADRIIEQDMECQ [V19Q] it is 3.76. The figure for VDVQTELYLEEIADRIIELDMECQ [V19L] is 1.59. For VDVQTELYLEEIADRIIEYDMECQ [V19Y] the value was 2.58; for VDVQTELYLEEIADRIIECDMECQ [V19C], 1.89.

VDVQTELYLEEIADRIIEEDMECQ [V19E]: the protein stability index was determined as 4.65. For VDVQTELYLEEIADRIIEADMECQ [V19A] the value was 3.81; for VDVQTELYLEEIADRIIEMDMECQ [V19M], 2.79. As for VDVQTELYLEEIADRIIEPDMECQ [V19P], the protein stability index amounted to 4.3. Take VDVQTELYLEEIADRIIERDMECQ [V19R]: the protein stability index is 4.23. For VDVQTELYLEEIADRIIESDMECQ [V19S] the value was 4.1; for VDVQTELYLEEIADRIIEHDMECQ [V19H], 3.55; for VDVQTELYLEEIADRIIETDMECQ [V19T], 3.95. For VDVQTELYLEEIADRIIEIDMECQ [V19I] the value was 2.36; for VDVQTELYLEEIADRIIEWDMECQ [V19W], 2.28. The figure for VDVQTELYLEEIADRIIENDMECQ [V19N] is 4.1; for VDVQTELYLEEIADRIIEFDMECQ [V19F] it is 2.3. Regarding VDVQTELYLEEIADRIIEGDMECQ [V19G], the protein stability index came out at 4.16. For VDVQTELYLEEIADRIIEKDMECQ [V19K] the value was 4.5; for VDVQTELYLEEIADRIIEDDMECQ [V19D], 5.01.

The values are drawn from the supplement of paper PMC10567573.
